According to publication PMC4633670, “Structural Characterization of a Newly Identified Component of α-Carboxysomes: The AAA+ Domain Protein CsoCbbQ” (Scientific Reports, 2015):

Tests used:
[1] = molecular target: Hexa-histidine-tagged H. nea CsoCbbQ (Hneap_0905) (Halothiobacillus neapolitanus); test: SEC; size exclusion data of recombinant CsoCbbQ (Supplementary Fig. 2); conditions not shown
[2] = molecular target: Hexa-histidine-tagged H. nea CsoCbbQ (Hneap_0905) (Halothiobacillus neapolitanus); test: crystal structure; His6-tagged CsoCbbQ crystallised with ATP in the mother liquor, ADP bound; 22 C, 0.1 M HEPES pH 7.5, 6% PEG-8000, 8% ethylene glycol; two molecules per asymmetric unit, hexamer by crystal symmetry
[3] = molecular target: T1, N-terminal histidine-tagged CsoCbbO (Hneap_0910) (Halothiobacillus neapolitanus, UniProt D0KZ80 1-788); test: SEC; purified CsoCbbO/Q complex on Superdex 200 10/300 GL; 10 mM Tris-HCl pH 8.0, 100 mM NaCl, 0.25 ml/min; mass estimated against protein standards; conditions: both partners purified
T1 construct: CsoCbbO, cso-associated CbbO of Halothiobacillus neapolitanus, locus tag Hneap_0910; 788 amino acids, VWA domain in its C-terminus; amplified from genomic DNA with primers from the ATG to the stop codon; Cloned into the BamHI and HindIII sites of pETDuet-1; It was insoluble when expressed alone in E. coli; also called HT-CbbO; hisCsoCbbO; not shown: His6, N-terminal, kept
T1 sequence (looked up): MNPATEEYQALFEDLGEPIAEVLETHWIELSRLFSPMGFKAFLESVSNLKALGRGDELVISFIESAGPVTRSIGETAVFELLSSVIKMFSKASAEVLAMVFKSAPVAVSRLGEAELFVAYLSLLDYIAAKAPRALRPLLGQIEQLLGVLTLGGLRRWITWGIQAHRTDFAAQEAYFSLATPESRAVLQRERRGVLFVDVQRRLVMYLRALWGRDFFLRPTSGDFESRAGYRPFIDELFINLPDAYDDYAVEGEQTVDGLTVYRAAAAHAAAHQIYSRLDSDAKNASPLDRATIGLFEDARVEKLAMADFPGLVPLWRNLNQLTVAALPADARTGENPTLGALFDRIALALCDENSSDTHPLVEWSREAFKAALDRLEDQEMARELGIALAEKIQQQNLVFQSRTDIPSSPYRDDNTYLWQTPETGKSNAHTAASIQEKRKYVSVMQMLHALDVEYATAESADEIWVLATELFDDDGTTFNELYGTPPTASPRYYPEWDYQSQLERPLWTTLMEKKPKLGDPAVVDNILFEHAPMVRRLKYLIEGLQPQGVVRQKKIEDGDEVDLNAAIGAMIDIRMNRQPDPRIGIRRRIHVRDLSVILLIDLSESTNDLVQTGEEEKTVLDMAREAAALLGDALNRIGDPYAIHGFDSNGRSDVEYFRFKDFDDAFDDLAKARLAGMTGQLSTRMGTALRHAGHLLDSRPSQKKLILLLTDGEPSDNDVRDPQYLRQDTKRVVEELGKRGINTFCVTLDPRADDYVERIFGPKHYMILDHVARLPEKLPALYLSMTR

[4] = molecular target: the molecule itself; test: as above

| Molecule | stoichiometry N [1] | stoichiometry N [2] | stoichiometry N [3] | stoichiometry N [4] |
| --- | --- | --- | --- | --- |
| Hexa-histidine-tagged H. nea CsoCbbQ (Hneap_0905) (enzyme) | 6 | 6 | – | – |
| non-His6-tagged CsoCbbQ (NT-CbbQ) (enzyme, Halothiobacillus neapolitanus, UniProt D0KZ75 1-267, looked up, CsoCbbQ of Halothiobacillus neapolitanus, locus tag Hneap_0905) MTQNADQYRVRKEPYYRAVQDEIELYRAGYEARIPMMLKGPTGCGKSRFVEHMAWKLNRPLITIACNEDMTASDLVGRYLLDKDGTRWQDGPLTVAARIGAICYLDEIVEARQDTIVVIHPLTDHRRVLPLEKKGELVEAHPDFQIVISYNPGYQSLMKDLKQSTKQRFGALDFDYPKPDIEAEIVSHEAGVDKDTAEKLVQIAQKARNLKGHGLDEGLSTRLLVYAGKLIAKGVDARAACTMTLVNPITDDVDMRDALDTVVKTFF | – | – | ~6 | ~6 |
